T1: mouse SIRPA BALB/c (mouse (BALB/c), UniProt P97797 35-513)
T1 construct: FLAG-tagged (pFLAG V5-DEST), on 293α cells
T1 chain: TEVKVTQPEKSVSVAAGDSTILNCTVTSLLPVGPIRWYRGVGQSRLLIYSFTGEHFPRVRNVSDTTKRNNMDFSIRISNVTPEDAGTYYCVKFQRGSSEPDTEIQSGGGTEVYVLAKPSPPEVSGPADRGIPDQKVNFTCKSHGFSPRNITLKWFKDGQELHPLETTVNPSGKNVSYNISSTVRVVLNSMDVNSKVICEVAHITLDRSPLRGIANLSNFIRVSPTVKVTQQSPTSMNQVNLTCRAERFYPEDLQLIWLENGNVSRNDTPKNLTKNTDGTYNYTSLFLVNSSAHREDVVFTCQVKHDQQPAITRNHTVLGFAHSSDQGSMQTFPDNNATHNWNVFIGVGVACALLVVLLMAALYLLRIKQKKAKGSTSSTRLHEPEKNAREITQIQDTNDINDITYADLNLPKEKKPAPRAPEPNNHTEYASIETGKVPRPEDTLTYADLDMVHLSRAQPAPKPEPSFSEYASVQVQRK

T2: mouse SIRPA_C57BL/6 (mouse (C57BL/6), UniProt P97797 32-513)
T2 construct: FLAG-tagged (pFLAG V5-DEST), on 293α cells
T2 sequence: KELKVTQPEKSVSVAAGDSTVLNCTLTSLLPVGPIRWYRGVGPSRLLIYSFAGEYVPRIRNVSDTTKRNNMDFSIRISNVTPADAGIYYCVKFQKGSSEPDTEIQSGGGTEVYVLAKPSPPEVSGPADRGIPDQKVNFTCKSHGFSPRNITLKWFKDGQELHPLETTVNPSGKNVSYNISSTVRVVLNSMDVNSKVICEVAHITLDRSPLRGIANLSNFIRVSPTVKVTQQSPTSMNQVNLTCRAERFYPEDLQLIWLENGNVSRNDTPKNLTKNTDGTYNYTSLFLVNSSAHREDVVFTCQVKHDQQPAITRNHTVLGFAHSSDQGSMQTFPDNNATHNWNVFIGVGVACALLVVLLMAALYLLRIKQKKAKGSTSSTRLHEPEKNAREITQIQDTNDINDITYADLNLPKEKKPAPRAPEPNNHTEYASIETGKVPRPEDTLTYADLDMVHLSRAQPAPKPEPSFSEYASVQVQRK

T3: mouse SIRPA_129 (mouse (129), UniProt P97797 32-513)
T3 construct: FLAG-tagged (pFLAG V5-DEST), on 293α cells; also called 129sv
T3 chain: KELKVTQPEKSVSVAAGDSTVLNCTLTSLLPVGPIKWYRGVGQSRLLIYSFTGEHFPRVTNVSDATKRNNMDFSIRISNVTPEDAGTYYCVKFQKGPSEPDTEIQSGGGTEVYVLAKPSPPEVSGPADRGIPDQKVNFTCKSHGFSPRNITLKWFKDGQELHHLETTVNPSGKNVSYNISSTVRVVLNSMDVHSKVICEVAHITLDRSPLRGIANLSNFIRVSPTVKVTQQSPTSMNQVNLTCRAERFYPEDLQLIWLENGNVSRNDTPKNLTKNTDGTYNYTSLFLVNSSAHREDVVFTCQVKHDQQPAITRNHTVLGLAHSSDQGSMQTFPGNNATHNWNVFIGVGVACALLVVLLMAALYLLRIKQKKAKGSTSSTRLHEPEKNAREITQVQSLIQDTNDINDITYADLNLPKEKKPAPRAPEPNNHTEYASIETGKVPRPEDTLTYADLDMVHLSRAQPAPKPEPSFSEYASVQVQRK

T4: mouse SIRPA_NOD (mouse (NOD), UniProt P97797 32-513)
T4 construct: FLAG-tagged (pFLAG V5-DEST), on 293α cells; also called NOD SCID
T4 chain: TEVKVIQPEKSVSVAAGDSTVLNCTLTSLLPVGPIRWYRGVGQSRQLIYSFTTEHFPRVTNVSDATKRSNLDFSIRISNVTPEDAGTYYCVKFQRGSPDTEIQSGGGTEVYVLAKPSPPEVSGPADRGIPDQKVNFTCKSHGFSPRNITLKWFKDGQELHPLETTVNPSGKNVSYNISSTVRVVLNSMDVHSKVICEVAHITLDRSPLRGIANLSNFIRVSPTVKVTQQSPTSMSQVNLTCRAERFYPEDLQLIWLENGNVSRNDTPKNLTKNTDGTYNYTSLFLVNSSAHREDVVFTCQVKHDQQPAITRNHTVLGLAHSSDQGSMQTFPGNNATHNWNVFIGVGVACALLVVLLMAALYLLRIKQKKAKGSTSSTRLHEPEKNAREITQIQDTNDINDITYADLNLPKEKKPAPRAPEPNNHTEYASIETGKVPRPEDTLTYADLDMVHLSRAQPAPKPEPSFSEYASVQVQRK

T5: human SIRPA_V4 (human, UniProt P78324 31-504)
T5 construct: FLAG-tagged (pFLAG V5-DEST), on 293α cells; also called human SIRPA Variant 4
T5 chain: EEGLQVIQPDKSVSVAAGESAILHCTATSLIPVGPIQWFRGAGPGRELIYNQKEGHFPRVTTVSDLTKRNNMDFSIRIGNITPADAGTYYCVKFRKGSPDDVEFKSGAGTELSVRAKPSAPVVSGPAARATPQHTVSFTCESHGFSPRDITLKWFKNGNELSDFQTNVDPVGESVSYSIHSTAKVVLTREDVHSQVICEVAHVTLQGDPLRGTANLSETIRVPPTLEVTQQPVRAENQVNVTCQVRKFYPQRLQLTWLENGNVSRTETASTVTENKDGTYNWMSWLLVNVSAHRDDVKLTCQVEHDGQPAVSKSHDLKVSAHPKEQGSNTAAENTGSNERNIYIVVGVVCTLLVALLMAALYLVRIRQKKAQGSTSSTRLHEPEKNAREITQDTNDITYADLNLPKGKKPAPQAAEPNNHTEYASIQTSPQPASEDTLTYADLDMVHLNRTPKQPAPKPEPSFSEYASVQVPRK


Columns and labels:
[1] = molecular target: T1, mouse SIRPA BALB/c; experiment: cell-based ELISA, transfected 293α cells
Protocol: (§1) After the culture supernatant of 293α cells into which the pFLAG V5-DEST-monkey SIRPA or pFLAG V5-DEST-mouse SIRPA expression vector was introduced and the pFLAG V5-DEST-introduced 293α cells prepared in Example 1)-5-2 was removed, binding to monkey or mouse SIRPA was evaluated in the same manner as for the binding activity of human SIRPA.

[2] = molecular target: T2, mouse SIRPA_C57BL/6; experiment: cell-based ELISA, transfected 293α cells
Protocol: as §1

[3] = molecular target: T3, mouse SIRPA_129; experiment: cell-based ELISA, transfected 293α cells
Protocol: as §1

[4] = molecular target: T4, mouse SIRPA_NOD; experiment: cell-based ELISA, transfected 293α cells
Protocol: as §1

[5] = molecular target: T5, human SIRPA_V4; experiment: cell-based ELISA, transfected 293α cells, 10,000 ng/mL, normalized to FLAG
Protocol: (§2) After the culture supernatant of 293α cells into which the vector expressing 10 different variant proteins prepared in Example 2)-1-1 was introduced was removed, 50 μL per well of a purified rat anti-human SIRPA antibody diluted with 5% FBS-containing PBS to a final concentration of 10,000 ng/ml was added to each of pFLAG V5-DEST-SIRPA_V1-V10 and pFLAG V5-DEST-introduced 293α cells, and the mixture was allowed to stand at 4° C. for one hour. Further, 50 μL per well of an anti-FLAG M2 antibody (SIGMA) diluted with 5% FBS-containing PBS to a final concentration of 10,000 ng/mL was added to a well for detecting expression of each SIRPA variant, and the mixture was allowed to stand at 4° C. for one hour. Thereafter, binding to 10 different human SIRPA variants was evaluated in the same manner as in the evaluation of the binding activity of the human SIRPA described in 1)-6-2. Binding of the rat anti-human SIRPA antibodies to each variant was standardized by expression of the FLAG tag.

[6] = molecular target: T6, human SIRPA_V8 (human, UniProt P78324 31-504); experiment: as above
T6 construct: FLAG-tagged (pFLAG V5-DEST), on 293α cells; also called human SIRPA Variant 8
Protocol: as §2

| binding result [1] | binding result [2] | binding result [3] | binding result [4] | binding result [5] | binding result [6] | Binder |
| --- | --- | --- | --- | --- | --- | --- |
| no binding | no binding | no binding | no binding | binds | binds | rat anti-human SIRPA monoclonal antibody F63 (antibody, V domains shown, Rat IgG2a/lambda purified from hybridoma) VH: QVQLKESGPGLVQPSETLSLTCTVSGFSLASYSLSWVRQPSGKGPEWMGRMYYDGDTAYNSALKSRLSISRDTSKNQVFLKMNSLQTDDTGTYYCTRDRSMFGTDYPHWYFDFWGPGTMVTVSS VL: QFTLTQPKSVSGALRSTITIPCERSSGDIGDSYVSWYQRHLGRPPINVIYADDQRPSEVSDRFSGSIDSSSNSASLTITNLQMDDEADYFCQSYDSKIDIFGGGTKLTVL |
| no binding | no binding | no binding | no binding | binds | binds | rat anti-human SIRPA monoclonal antibody F44 (antibody, V domains shown, Rat IgG2a/kappa purified from hybridoma) VH: EVQLVESGGGLVQPGRSLKLSCAASGFTFSNYYMAWVRQAPTKGLEWVTYITTGGGSTYFRDSVKGRFTISRDNAESTLYLQMDSLRSEDTATYYCTAANYGGSYFDYWGQGVMVTVSS VL: DVQMTQSPSNLAASPGESVSINCKASKSISKYLAWYQQKPGKANKLLIYSGSTLQSGTPSRFSGSGSGTDFTLTIRNLEPEDFGLYYCQQHNEYPPTFGAGTKLELK |
